From publication PMC6499725

Target: propionyl-CoA synthase (PCS) from Erythrobacter sp. NAP1 (Erythrobacter sp. NAP1)
Experiment: crystal structure

## propionyl-CoA synthase (PCS) from Erythrobacter sp. NAP1 (enzyme)
  stoichiometry N: 2
